The values that follow come from paper PMC2910063.

Read-outs that look alike come from different tables or passages of the source.

The target in data set [1] is T1, FoxM1-DBD (FoxM1C 222-360), crystal (UniProt Q08050 222-360).
T1 sequence: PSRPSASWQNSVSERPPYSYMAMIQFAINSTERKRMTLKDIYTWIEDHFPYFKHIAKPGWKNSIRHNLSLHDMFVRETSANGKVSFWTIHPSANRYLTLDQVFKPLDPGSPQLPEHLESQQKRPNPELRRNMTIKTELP
Description: X-ray crystallography 2.2 A.

The target of data set [2] is T2, FoxM1-DBD (FoxM1C 222-360) (UniProt Q08050 222-360).
T2 sequence: T1 sequence
Description: competition fluorescence anisotropy.

In data set [3] the target is T2, FoxM1-DBD (FoxM1C 222-360). The data set is described as follows: fluorescence anisotropy.
The target of data set [4] is T2, FoxM1-DBD (FoxM1C 222-360). The data set is described as follows: fluorescence anisotropy. This is another data set of the same source.

B1: Fm1-2x-19nt-aa/tt (dsDNA)
DNA 1: AAATTGTTTATAAACAGCCCG
DNA 2: TTCGGGCTGTTTATAAACAAT
For the molecule B1, the binding result in data set [1] is “binds”.

B2: 1x (dsDNA)
DNA 1: CCGATTGTTTAGCCCGTGCC
DNA 2: GGCACGGGCTAAACAATCGG
With B2, the 50% inhibitory concentration (IC50) in data set [2] was 7 µM.

B3: 11 bp consensus, TAMRA (dsDNA)
DNA 1: CCATAAACAAC
DNA 2: GTTGTTTATGG
Regarding B3, the figures for the Kd in data set [3] and in data set [4] were 7.5 ± 0.8 µM and 7 ± 0.3 µM, respectively.
